From US20240123088A1 come the findings set out here.

Where only a bound is given, the exact number is not on record here.

The test has as its target RmaDnaB-SpdCas9C (Rhodothermus marinus DnaB C-intein fused to the C-terminal split SpdCas9, HA-tagged) (Rhodothermus marinus (C-intein); Streptococcus pyogenes (dCas9 half)) (UniProt Q99ZW2). Nature of the test: cell-based or functional assay.

The substance “SpdCas9N-RmaDnaB (N-terminal split SpdCas9 fused to the Rhodothermus marinus DnaB N-intein, FLAG-tagged)” returned an in vivo reconstitution of tsdCas9, Western blot band intensity, mouse striatum co-transduced with AAV9 above 50%.
